Assay results reported in patent US8114641B2, “Methylbutanol as an advanced biofuel” (Synthetic Genomics, Inc., priority 2007, dated 2012).
Where two headings read alike, the source gives them in different places.

What was measured:
[1] = Physical properties of alcohol fuels and gasoline; type: physicochemical
[2] = 10% blend in gasoline; value based on literature review; cited from earlier work
[3] = 10% blend in gasoline
[4] = Fuel properties of the neat fuel
[5] = based on literature review; cited from earlier work
[6] = Keto acid decarboxylase activity on 2-keto-3-methylvalerate, PDC/KDC-ADH6 coupled assay with crude extracts; type: biochemical; conditions: for Vmax 2 keto 3 methyl valerate / Km: crude extract; for Vmax 2 keto 3 methyl valerate: S. cerevisiae PDC1 deletion host; for Km: enzyme expressed from p415 TEF in S. cerevisiae PDC1 deletion strain, read-out: Km 2 keto 3 methyl valerate
Method: (§1) The Lactococcus lactis KdcA and S. cerevisiae and P. stipitis PDCs were cloned into yeast expression vector p415 under the control of TEF promoter. The host strain was a PDC1 deletion strain. Crude extracts were prepared for enzymatic assays by incubating cell pellet with CelLytic (Sigma), followed by bead beating. The decarboxylase reaction was performed in 100 mM Citrate Phosphate buffer with 1 mM Thiamine diphosphate, 1 mM MgCl2 and 50 μM to 20 mM aldehyde. The assay was coupled to an alcohol dehydrogenase which enabled continuous monitoring of NADH or NADPH oxidation at 340 nm.
The substrate specificity of the crude extract overexpressing different PDC/Kdcs was tested with a broad range of aldehydes. This included acetaldehyde, butyraldehyde and 2-methylbutyraldehyde. The concentration of the aldehydes was varied from 50 μM to 20 mM to determine the Km and Vmax values.
2-keto-3-methylvalerate (2K3MV) was tested for decarboxylation and subsequent reduction using PDC/KDC-ADH6 coupled assays.

[7] = Keto acid decarboxylase activity on pyruvate, crude extracts; type: biochemical; conditions: crude extract, S. cerevisiae PDC1 deletion host; sigmoidal curves
Method: as §1
Pyruvate is the target for multiple enzymes and a decarboxylation of the compound can lead to the production of acetaldehyde and subsequently ethanol. To prevent decarboxylation of pyruvate and increase 2-MBO production, a keto acid decarboxylase with a very high Km for pyruvate is ideal. […] The kinetic curves obtained with pyruvate as substrate were sigmoidal. This could be due to the fact that there are multiple enzymes in the crude extract with different Km for pyruvate. The final curve is therefore the superposition of individual curves. Absolute Km values […]. (FIG. 26.)

[8] = Keto acid decarboxylase activity on 2-keto butyrate, NADH dependent coupled assay with yeast ADH1; type: biochemical; conditions: for Vmax 2 keto butyrate / Km: crude extract; for Vmax 2 keto butyrate: S. cerevisiae PDC1 deletion host; for Km: enzyme expressed from p415 TEF in S. cerevisiae PDC1 deletion strain
Method: as §1
NADH dependent coupled assays with yeast ADH1 were carried out to determine the decarboxylase activity of yeast and heterologous enzymes on the substrate 2 keto butyrate (2KB). 2KB is an intermediate in the production of 2-methylbutanol. A high decarboxylase activity on 2KB can lead to its conversion to propanal and reduce the yield of 2-MBO. […] (See FIG. 25 a-g.) The enzyme with the lowest Km for 2-ketobutyrate is yeast PDC1 and therefore the corresponding gene needs to be deleted in the 2-MBO production strain (data not shown).

[9] = Reductase activity of yeast ADH1 on various aldehydes; type: biochemical
Method: The ideal ADH for 2-MBO production should be able to reduce branched aldehydes. Therefore, the enzymes ADH1, ADH6, and ADH7 were overexpressed in yeast and were tested for their reductase activity on various aldehydes.

CCO [Ethanol, reference compound]
Boiling Point, max [1]: 79 °C | Flash Point, min [1]: 13 °C | Freezing Point, max [1]: −114 °C | Reid Vapor Pressure [2]: ~8.2^A psi | Energy Content [3]: 111,052 BTU/gal | Pump Octane (R + M)/2 ([3]; RBOB with Pump Octane 80.85 and RVP 7.37): 85.9 | Energy Content [4]: 84,519 BTU/gal | Reid Vapor Pressure [4]: 2.3 psi | Pump Octane (R + M)/2 ([4]; extrapolated from tests on blended fuels (blending octanes)): 130.9 | Fuel Solubility in Water [5]: 100 wt % | Water Solubility in Fuel [5]: 100 wt %

B1: L. lactis KDCA: Branched-chain alpha-ketoacid decarboxylase [Lactococcus lactis], SEQ ID NO: 61 (protein, listed as Lactococcus lactis)
chain: MYTVGDYLLDRLHELGIEEIFGVPGDYNLQFLDQIISREDMKWIGNANELNASYMADGYARTKKAAAFLTTFGVGELSAINGLAGSYAENLPVVEIVGSPTSKVQNDGKFVHHTLADGDFKHFMKMHEPVTAARTLLTAENATYEIDRVLSQLLKERKPVYINLPVDVAAAKAEKPALSLEKESSTTNTTEQVILSKIEESLKNAQKPVVIAGHEVISFGLEKTVTQFVSETKLPITTLNFGKSAVDESLPSFLGIYNGKLSEISLKNFVESADFILMLGVKLTDSSTGAFTHHLDENKMISLNIDEGIIFNKVVEDFDFRAVVSSLSELKGIEYEGQYIDKQYEEFIPSSAPLSQDRLWQAVESLTQSNETIVAEQGTSFFGASTIFLKSNSRFIGQPLWGSIGYTFPAALGSQIADKESRHLLFIGDGSLQLTVQELGLSIREKLNPICFIINNDGYTVEREIHGPTQSYNDIPMWNYSKLPETFGATEDRVVSKIVRTENEFVSVMKEAQADVNRMYWIELVLEKEDAPKLLKKMGKLFAEQNK
Vmax 2 keto 3 methyl valerate [6]: 987.3 µM/min/mg | Km ([6]; listed as KDCA): 3.7 mM | Km [6]: 3.75 mM | Vmax Pyruvate [7]: 10069 µM/min/mg | Vmax 2 keto butyrate [8]: 2053.0 µM/min/mg | Km [8]: 6.05 mM

B2: P. stipitis PDC 3/6: Pyruvate decarboxylase (PDC6) (PDC3) [Pichia stipitis], SEQ ID NO: 53 (protein, listed as Pichia stipitis)
chain: MTPVQETIRLPGTSSPTVPENVTLGEYLFLRISQANPKLRSIFGIPGDFNVDLLEHLYSPVVAGRDIKFIGLCNELNGAYTADGYSRAIGGLSTFISTFGVGELSAINGIAGSFAEFSPVLHIVGTTSLPQRDHAINGSDVRNHHHLIQNKNPLCQPNHDVYKKMIEPISVIQESLDSDLQRNMEKIDRVLVKILQESRPGYLFIPCDITNLIVPSYRLYETPLPLEIQLTTSGVEVLEDVVDAILFRLYKSKNPSLLSDCLTTRFNLQDKLNTLVAKLPSNFVKLFSTNMARNIDESLSNFVGLYFGIGSSSKEVSRQLERNTDFLINLGYFNAETTTAGYSNDFSNIEEYIEINPDYIKVNEHIINIKNPESGKRLFSMGQLLDALLFKLDLNKIENINNNNISYKFFPPTLYEQDNNTDYIPQTKLVDYLNENLQPGDLLVMDTMSFCFALPDIMLPQGVQLLTQNYYGSIGYALPSTFGATMAVNDLGSDRRIILIEGDGAAQMTIQELSSFLKYKEFLPNMPKIFLINNDGYTVERMIKGPTRSYNDINGEWSWTQLLGVFGDKEQKYHSTALLRNVNEFNKYFEFQRQTDNSKLEFIELIAGKYDCPLRFSEMFCKK
Vmax 2 keto 3 methyl valerate [6]: 3359. uM/min/mg | Km ([6]; listed as P. stipitis PDC3/6): 0.84 mM | Km [6]: 0.84 mM | Vmax on 2-keto-3-methylvalerate, fold higher than KdcA ([6]; relative to L. lactis KdcA): 3.4 fold | Vmax Pyruvate [7]: 12624 µM/min/mg | Vmax 2 keto butyrate [8]: 5389 µM/min/mg | Km [8]: 6.51 mM | Vmax on 2 keto butyrate, fold higher than KDCA ([8]; relative to L. lactis KdcA): about 3.4 fold

B3: ADH1: Saccharomyces cerevisiae alcohol dehydrogenase ADH1, SEQ ID NO: 67 (protein, listed as Saccharomyces cerevisiae)
chain: MSIPETQKGVIFYESHGKLEYKDIPVPKPKANELLINVKYSGVCHTDLHAWHGDWPLPVKLPLVGGHEGAGVVVGMGENVKGWKIGDYAGIKWLNGSCMACEYCELGNESNCPHADLSGYTHDGSFQQYATADAVQAAHIPQGTDLAQVAPILCAGITVYKALKSANLMAGHWVAISGAAGGLGSLAVQYAKAMGYRVLGIDGGEGKEELFRSIGGEVFIDFTKEKDIVGAVLKATDGGAHGVINVSVSEAAIEASTRYVRANGTTVLVGMPAGAKCCSDVFNQVVKSISIVGSYVGNRADTREALDFFARGLVKSPIKVVGLSTLPEIYEKMEKGQIVGRYVVDTSK
fold less active on 2-methyl butaraldehyde than acetaldehyde [9]: ~5000 fold
